In patent US7247704:

Molecular target: Human Lung Tryptase (human) (UniProt Q15661)
Test: cell-based or functional assay

UniProt Q15661, sequence (Q15661 31-275 limits assumed): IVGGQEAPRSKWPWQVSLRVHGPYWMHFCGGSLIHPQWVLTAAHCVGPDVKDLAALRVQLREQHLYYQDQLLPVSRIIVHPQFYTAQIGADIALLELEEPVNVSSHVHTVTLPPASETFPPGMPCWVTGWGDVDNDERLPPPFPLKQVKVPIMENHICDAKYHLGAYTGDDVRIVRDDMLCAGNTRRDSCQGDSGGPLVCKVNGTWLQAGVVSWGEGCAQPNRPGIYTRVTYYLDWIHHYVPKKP

% Inhibition of tryptase (cleavage of vasoactive intestinal peptide, RP-HPLC; example calculation): 36.7%
Substance: recombinant human Secretory Leukocyte Protease Inhibitor (rhSLPI) (from UniProt P03973 26-132)
